B1: Activin B (homodimer of two inhibin betaB subunits), P09529 293-407 (ligand)
chain: GLECDGRTNLCCRQQFFIDFRLIGWNDWIIAPTSYYGNYCEGSCPAYLAGVPGSASSFHTAVVNQYRMRGLNPGTVNSCCIPTKLSTMSMLYFDDEYNIVKRDVPNMIVEECGCA
B2: Activin A (homodimer of two inhibin betaA subunits), P08476 311-426 (ligand)
chain: GLECDGKVNICCKKQFFVSFKDIGWNDWIIAPSGYHANYCEGECPSHIAGTSGSSLSFHSTVINHYRMRGHSPFANLKSCCVPTKLRPMSMLYYDDGQNIIKKDIQNMIVEECGCS

Biological target: activin Type II receptors (ActRIIA and ActRIIB) on A204/CAGAx12-Luc cells
Test: cell-based or functional assay

Row | Binder | activation of the A204/CAGAx12-Luc cell line (Smad 2/3-luciferase reporter), EC50
1 | B1 | 0.047 nM
2 | B2 | 0.099 nM
